No end group written: not given here.
Key:
apelin 12 = target: T1, apelin 12 (UniProt Q9ULZ1 66-77); assay: BIAcore solution equilibrium binding: Ab A pre-incubated with apelin 12, injected over immobilised biotin-labeled apelin; one-site homogeneous model
T1 construct: domain: apelin 12
T1 peptide (looked up): RPRLSHKGPMPF
Description: Binding affinity of Ab A was determined using BIAcore solution equilibrium binding analysis. Briefly, biotin-labeled apelin was immobilized at high density on a neutravidin surface. Ab A was incubated with apelin 12 at RT for over 4 hours before injected over the immobilized surfaces. The dissociation equilibrium constant (Kd) was obtained from a nonlinear regression analysis of the competition curve using a one-site homogeneous binding model (KinExATM Pro software).

apelin = apelin (UniProt Q9ULZ1 65-77, limits assumed); assay: cell-based or functional assay
apelin 12-3 = target: T2, apelin 12-3 (also: biotinylated, position not given here); assay: ELISA: biotinylated peptide captured on neutravidin plate, antibody detected with HRP goat anti-mouse Fc, OD650; one point per peptide, antibody concentration not given
T2 construct: also called peptide 12
T2 peptide: RPRLSHKGPM
Description: (§1) The antibody binding site was mapped using an ELISA-based assay. Briefly, various biotinylated apelin peptides (SEQ ID NOs: 7-22) were captured onto neutravidin coated plates and incubated with apelin antibody. Bound antibody was detected with horseradish peroxidase-conjugated goat anti-mouse Fc in the presence of the chromogenic substrate. The absorbance was read at 650 nm. Ab A is believed to neutralize all active forms of apelin.

apelin 12-4 = target: T3, apelin 12-4 (also: biotinylated, position not given here); assay: as above
T3 construct: also called peptide 13
T3 peptide: RPRLSHKGP
Description: as §1

apelin 12-5 = target: T4, apelin 12-5 (also: biotinylated, position not given here); assay: as above
T4 construct: also called peptide 14
T4 peptide: RPRLSHKG
Description: as §1

apelin 11 = target: T5, apelin 11 (also: biotinylated, position not given here); assay: as above
T5 construct: also called peptide 6
T5 peptide: PRLSHKGPMPF
Description: as §1

pyro13 C-blot = target: T6, pyro13 C-blot (N-terminal pGlu as printed; biotinylated; the sheet prints 'C-blot', meaning not explained); assay: as above
T6 construct: also called peptide 3
T6 peptide: ERPRLSHKGPMPF
Description: as §1

F13A = target: T7, F13A (also: biotinylated, position not given here); assay: as above
T7 construct: apelin 13 with A in place of the C-terminal F; also called peptide 4
T7 peptide: QRPRLSHKGPMPA
Description: as §1

apelin 12-2 = target: T8, apelin 12-2 (also: biotinylated, position not given here); assay: as above
T8 construct: also called peptide 11
T8 peptide: RPRLSHKGPMP
Description: as §1

Kd (apelin 12): 6 nM | IC50: inhibition of the apelin-induced change of cAMP (HTRF ratio 665/620) in CHOK1-human APJ cells, 6 nM apelin, 500 nM forskolin (apelin): 18.2 nM | binding result (apelin 12-3): binds | binding result (apelin 12-4): binds | binding result (apelin 12-5): binds | binding result (apelin 11): binds | binding result (pyro13 C-blot): binds | binding result (F13A): binds | binding result (apelin 12-2): binds
B1: antibody A (Ab A) (antibody, V domains shown)
VH: NVQLVESGGGLVKPGGSLKLSCVASGFIFSDYVMSWVRQTPEKRLEWVATISDGGIYTSYPDNIKGRFTISRDNANNKLYLQMSHLRSEDTAMYFCSRAAITSDDFDFWGQGTALTVSS
VL: DIVMSQSPSSLAVSAGEKVTMSCKSSQSLLDSRTRKNYLAWYQQKPGQSPKLLISWASIRESGVPDRFTGSGSGTDFTLSISSVQAEDLAVYYCKQSYYLLTFGAGTKLELKR
notes: also called apelin antibody; apelin Ab

— patent US20140328850A1 (Amgen, published 2014)
